The record followed here is patent publication US20260116944A1, “NOVEL TRIPLE GLP-1/GIP/GLUCAGON RECEPTOR AGONIST AND A PHARMACEUTICAL COMPOSITION FOR PREVENTING OR TREATING OBESITY COMPRISING THE SAME” (HANMI PHARM. CO., LTD., priority 2022, published 2026).

T1: human GIP receptor (human, UniProt P48546 22-466)
T1 sequence (looked up): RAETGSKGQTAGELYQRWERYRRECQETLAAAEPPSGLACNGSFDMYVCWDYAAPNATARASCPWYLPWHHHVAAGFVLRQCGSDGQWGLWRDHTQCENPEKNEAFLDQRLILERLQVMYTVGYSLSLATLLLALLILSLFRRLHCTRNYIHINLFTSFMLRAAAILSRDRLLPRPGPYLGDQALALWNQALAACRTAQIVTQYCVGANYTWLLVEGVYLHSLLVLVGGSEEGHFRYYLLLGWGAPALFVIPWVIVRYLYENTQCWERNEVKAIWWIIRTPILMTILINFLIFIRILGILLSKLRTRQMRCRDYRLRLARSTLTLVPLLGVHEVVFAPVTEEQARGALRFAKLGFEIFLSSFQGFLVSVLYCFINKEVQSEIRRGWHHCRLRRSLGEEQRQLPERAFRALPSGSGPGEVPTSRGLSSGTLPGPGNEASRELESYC

B1: triple agonist of SEQ ID NO: 9 (peptide)
peptide: Y[Aib]QGTFTSDYSK([AEEA-AEEA-γGlu-C18 diacid])YLDEKAAKEFVQWLLDHHPSSGQPPPS-NH2
modifications: lactam 16-20; N-terminus assumed
SMILES: CC(C)C[C@H](NC(=O)[C@H](Cc1ccc(O)cc1)NC(=O)[C@H](CCCCNC(=O)COCCOCCNC(=O)COCCOCCNC(=O)CC[C@H](NC(=O)CCCCCCCCCCCCCCCCC(=O)O)C(=O)O)NC(=O)[C@H](CO)NC(=O)[C@H](Cc1ccc(O)cc1)NC(=O)[C@H](CC(=O)O)NC(=O)[C@H](CO)NC(=O)[C@@H](NC(=O)[C@H](Cc1ccccc1)NC(=O)[C@@H](NC(=O)CNC(=O)[C@H](CCC(N)=O)NC(=O)C(C)(C)NC(=O)[C@@H](N)Cc1ccc(O)cc1)[C@@H](C)O)[C@@H](C)O)C(=O)N[C@@H](CC(=O)O)C(=O)N[C@H]1CCC(=O)NCCCC[C@@H](C(=O)N[C@@H](CCC(=O)O)C(=O)N[C@@H](Cc2ccccc2)C(=O)N[C@H](C(=O)N[C@@H](CCC(N)=O)C(=O)N[C@@H](Cc2c[nH]c3ccccc23)C(=O)N[C@@H](CC(C)C)C(=O)N[C@@H](CC(C)C)C(=O)N[C@@H](CC(=O)O)C(=O)N[C@@H](Cc2c[nH]cn2)C(=O)N[C@@H](Cc2c[nH]cn2)C(=O)N2CCC[C@H]2C(=O)N[C@@H](CO)C(=O)N[C@@H](CO)C(=O)NCC(=O)N[C@@H](CCC(N)=O)C(=O)N2CCC[C@H]2C(=O)N2CCC[C@H]2C(=O)N2CCC[C@H]2C(=O)N[C@@H](CO)C(N)=O)C(C)C)NC(=O)[C@H](C)NC(=O)[C@H](C)NC(=O)[C@H](CCCCN)NC1=O
B2: triple agonist of SEQ ID NO: 2 (peptide)
peptide: Y[Aib]QGTFTSDYSK([AEEA-AEEA-γGlu-C20 diacid])YLDEKRAKEFVQWLLDHHPSSGQPPPS-NH2
modifications: lactam 16-20; N-terminus assumed
SMILES: CC(C)C[C@H](NC(=O)[C@H](Cc1ccc(O)cc1)NC(=O)[C@H](CCCCNC(=O)COCCOCCNC(=O)COCCOCCNC(=O)CC[C@H](NC(=O)CCCCCCCCCCCCCCCCCCC(=O)O)C(=O)O)NC(=O)[C@H](CO)NC(=O)[C@H](Cc1ccc(O)cc1)NC(=O)[C@H](CC(=O)O)NC(=O)[C@H](CO)NC(=O)[C@@H](NC(=O)[C@H](Cc1ccccc1)NC(=O)[C@@H](NC(=O)CNC(=O)[C@H](CCC(N)=O)NC(=O)C(C)(C)NC(=O)[C@@H](N)Cc1ccc(O)cc1)[C@@H](C)O)[C@@H](C)O)C(=O)N[C@@H](CC(=O)O)C(=O)N[C@H]1CCC(=O)NCCCC[C@@H](C(=O)N[C@@H](CCC(=O)O)C(=O)N[C@@H](Cc2ccccc2)C(=O)N[C@H](C(=O)N[C@@H](CCC(N)=O)C(=O)N[C@@H](Cc2c[nH]c3ccccc23)C(=O)N[C@@H](CC(C)C)C(=O)N[C@@H](CC(C)C)C(=O)N[C@@H](CC(=O)O)C(=O)N[C@@H](Cc2c[nH]cn2)C(=O)N[C@@H](Cc2c[nH]cn2)C(=O)N2CCC[C@H]2C(=O)N[C@@H](CO)C(=O)N[C@@H](CO)C(=O)NCC(=O)N[C@@H](CCC(N)=O)C(=O)N2CCC[C@H]2C(=O)N2CCC[C@H]2C(=O)N2CCC[C@H]2C(=O)N[C@@H](CO)C(N)=O)C(C)C)NC(=O)[C@H](C)NC(=O)[C@H](CCCNC(=N)N)NC(=O)[C@H](CCCCN)NC1=O
B3: triple agonist of SEQ ID NO: 3 (peptide)
peptide: Y[Aib]QGTFTSDYSK([AEEA-AEEA-γGlu-C20 diacid])YLDEKAAKDFVQWLLDQHPSSGQPPPS-NH2
modifications: lactam 16-20; N-terminus assumed
SMILES: CC(C)C[C@H](NC(=O)[C@H](Cc1ccc(O)cc1)NC(=O)[C@H](CCCCNC(=O)COCCOCCNC(=O)COCCOCCNC(=O)CC[C@H](NC(=O)CCCCCCCCCCCCCCCCCCC(=O)O)C(=O)O)NC(=O)[C@H](CO)NC(=O)[C@H](Cc1ccc(O)cc1)NC(=O)[C@H](CC(=O)O)NC(=O)[C@H](CO)NC(=O)[C@@H](NC(=O)[C@H](Cc1ccccc1)NC(=O)[C@@H](NC(=O)CNC(=O)[C@H](CCC(N)=O)NC(=O)C(C)(C)NC(=O)[C@@H](N)Cc1ccc(O)cc1)[C@@H](C)O)[C@@H](C)O)C(=O)N[C@@H](CC(=O)O)C(=O)N[C@H]1CCC(=O)NCCCC[C@@H](C(=O)N[C@@H](CC(=O)O)C(=O)N[C@@H](Cc2ccccc2)C(=O)N[C@H](C(=O)N[C@@H](CCC(N)=O)C(=O)N[C@@H](Cc2c[nH]c3ccccc23)C(=O)N[C@@H](CC(C)C)C(=O)N[C@@H](CC(C)C)C(=O)N[C@@H](CC(=O)O)C(=O)N[C@@H](CCC(N)=O)C(=O)N[C@@H](Cc2c[nH]cn2)C(=O)N2CCC[C@H]2C(=O)N[C@@H](CO)C(=O)N[C@@H](CO)C(=O)NCC(=O)N[C@@H](CCC(N)=O)C(=O)N2CCC[C@H]2C(=O)N2CCC[C@H]2C(=O)N2CCC[C@H]2C(=O)N[C@@H](CO)C(N)=O)C(C)C)NC(=O)[C@H](C)NC(=O)[C@H](C)NC(=O)[C@H](CCCCN)NC1=O
B4: triple agonist of SEQ ID NO: 8 (peptide)
peptide: Y[Aib]QGTFTSDYSK([AEEA-AEEA-γGlu-C18 diacid])YLDEKRAKEFVQWLLDHHPSSGQPPPS-NH2
modifications: lactam 16-20; N-terminus assumed
SMILES: CC(C)C[C@H](NC(=O)[C@H](Cc1ccc(O)cc1)NC(=O)[C@H](CCCCNC(=O)COCCOCCNC(=O)COCCOCCNC(=O)CC[C@H](NC(=O)CCCCCCCCCCCCCCCCC(=O)O)C(=O)O)NC(=O)[C@H](CO)NC(=O)[C@H](Cc1ccc(O)cc1)NC(=O)[C@H](CC(=O)O)NC(=O)[C@H](CO)NC(=O)[C@@H](NC(=O)[C@H](Cc1ccccc1)NC(=O)[C@@H](NC(=O)CNC(=O)[C@H](CCC(N)=O)NC(=O)C(C)(C)NC(=O)[C@@H](N)Cc1ccc(O)cc1)[C@@H](C)O)[C@@H](C)O)C(=O)N[C@@H](CC(=O)O)C(=O)N[C@H]1CCC(=O)NCCCC[C@@H](C(=O)N[C@@H](CCC(=O)O)C(=O)N[C@@H](Cc2ccccc2)C(=O)N[C@H](C(=O)N[C@@H](CCC(N)=O)C(=O)N[C@@H](Cc2c[nH]c3ccccc23)C(=O)N[C@@H](CC(C)C)C(=O)N[C@@H](CC(C)C)C(=O)N[C@@H](CC(=O)O)C(=O)N[C@@H](Cc2c[nH]cn2)C(=O)N[C@@H](Cc2c[nH]cn2)C(=O)N2CCC[C@H]2C(=O)N[C@@H](CO)C(=O)N[C@@H](CO)C(=O)NCC(=O)N[C@@H](CCC(N)=O)C(=O)N2CCC[C@H]2C(=O)N2CCC[C@H]2C(=O)N2CCC[C@H]2C(=O)N[C@@H](CO)C(N)=O)C(C)C)NC(=O)[C@H](C)NC(=O)[C@H](CCCNC(=N)N)NC(=O)[C@H](CCCCN)NC1=O

*1 amine or outer side, *2 acyl side, *3 side chain or, on linkers, in order; H or OH if unused. Bridges are numbered along the chain shown (N, C = ends). Where no end group is shown, it is not given here. Side-chain parts run from the residue outwards. [ ]: non-standard residue; d: D form. The star is where a group is joined. C20 diacid = O=C(O)CCCCCCCCCCCCCCCCCCC(=O)*; C18 diacid = O=C(O)CCCCCCCCCCCCCCCCC(=O)*; γGlu = O=C(O)[C@H](CCC(=O)[*:2])N[*:1]; AEEA = NCCOCCOCC(=O)O; Aib = CC(C)(N)C(=O)O

human GCG receptor, sequence (P47871 26-477): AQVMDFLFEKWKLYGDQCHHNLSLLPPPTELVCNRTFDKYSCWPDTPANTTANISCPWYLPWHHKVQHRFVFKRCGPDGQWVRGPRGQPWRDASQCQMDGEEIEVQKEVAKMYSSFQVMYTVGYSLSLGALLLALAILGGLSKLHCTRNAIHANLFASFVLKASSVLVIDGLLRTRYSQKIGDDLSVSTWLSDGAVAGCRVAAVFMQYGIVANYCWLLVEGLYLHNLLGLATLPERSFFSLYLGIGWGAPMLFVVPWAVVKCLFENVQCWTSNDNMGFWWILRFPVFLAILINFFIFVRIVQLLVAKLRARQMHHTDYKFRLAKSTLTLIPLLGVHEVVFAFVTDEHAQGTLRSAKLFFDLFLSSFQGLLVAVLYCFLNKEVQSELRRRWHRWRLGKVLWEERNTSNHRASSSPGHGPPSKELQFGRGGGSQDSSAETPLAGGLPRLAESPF

The first test addresses human GCG receptor (human, UniProt P47871 26-477). Nature of the test: cell-based or functional assay.
For B1, the “In vitro Activity Compared to Native Peptide (%) vs. Glucagon (relative titer from cAMP EC50)” value was 0.51 % of human GCG.
Still for that read-out and setting: the figure for B2 is 3.35 % of human GCG; for B3 it is 0.4 % of human GCG.
Same read-out and setting: the figure for B4 is 5.89 % of human GCG.

For a further test, the target named is T1, human GIP receptor. In words: cell-based or functional assay.
For B1, the “In vitro Activity Compared to Native Peptide (%) vs. GIP (relative titer from cAMP EC50)” value was 8.42 % of human GIP.
Turning to B2, the “In vitro Activity Compared to Native Peptide (%) vs. GIP (relative titer from cAMP EC50)” value is 2.17 % of human GIP.
On the same count and under the same terms, the figure for B3 is 7.04 % of human GIP.
The same measure, in the same setting: the figure for B4 is 4.89 % of human GIP.

The target in a further test is human GLP-1 receptor (human, UniProt P43220 24-463). In words: cell-based or functional assay.
Consider B1, for which the “In vitro Activity Compared to Native Peptide (%) vs. GLP-1 (relative titer from cAMP EC50)” value was 15 % of human GLP-1.
Still for that read-out and setting: with B2 the figure was 3.87 % of human GLP-1.
Still for that read-out and setting: the figure for B3 is 5.52 % of human GLP-1; for B4 it is 9.68 % of human GLP-1.
